Results reported in patent US20130217145A1 (published 2013).

Experiments:
Assay in all cases: FCS competition against 2 nM Alexa488-PIVKAII (13-27) premixed with 10 nM mAb 3C10
[1] = molecular target: T1, Gla domain Protein Z sequence 16 peptide
T1 construct: Homologous series peptide; also called PIVKAII Gla domain (13-27) analog, Protein Z
T1 peptide: LEKECYEEICVYEEA
Description: (§1) FCS measurements were performed on each sample after overnight incubation.

[2] = molecular target: T2, Gla domain Factor X sequence 12 peptide
T2 construct: Homologous series peptide; also called PIVKAII Gla domain (13-27) analog, Factor X
T2 peptide: LERECMEETCSYEEA
Description: as §1

[3] = molecular target: T3, Gla domain Factor IX sequence 11 peptide
T3 construct: Homologous series peptide; also called PIVKAII Gla domain (13-27) analog, Factor IX
T3 peptide: LERECMEEKCSFEEA
Description: as §1

[4] = molecular target: T4, Gla domain Protein S sequence 15 peptide
T4 construct: Homologous series peptide; also called PIVKAII Gla domain (13-27) analog, Protein S
T4 peptide: LERECIEELCNKEEA
Description: as §1

[5] = molecular target: T5, Gla domain Factor VII sequence 13 peptide
T5 construct: Homologous series peptide; also called PIVKAII Gla domain (13-27) analog, Factor VII
T5 peptide: LERECKEEQCSFEEA
Description: as §1

[6] = molecular target: T6, Gla domain Protein C sequence 14 peptide
T6 construct: Homologous series peptide; also called PIVKAII Gla domain (13-27) analog, Protein C
T6 peptide: LERECIEEICDFEEA
Description: as §1

Measured: binding result

B1: Anti-PIVKA-II monoclonal antibody 3C10 (antibody, V domains shown)
VH: EVQLVESGGDLVKPGGSLKLSCAASGFTFSSYGMSWVRQTPDKRLEWVATISRGGSSTYYPDSVKGRFTISRDNAKNNLYLQMSSLKSEDTAMYYCASLNYGNFFDYWGQGTTLTVSS
VL: DVVMTQTPLSLPVSLGDQASISCRSSQSLVHSNGNTYLHWYLQKPGQSPKLLIYKVSNRFSGVPDRFSGSGSGTDFTLKISRVEAEDLGVYFCSQNRHVPPTFGGGTKLEIKR
notes: Mouse hybridoma antibody from a GANP transgenic C57BL/6 mouse; For the Kd measurement the antibody carried Black Hole Quencher (I.R. 2.3); also called mAb 3C10; clone 3C10
no binding: all assays above
